We go through eight molecules from US20250340623A1 (AC IMMUNE, published 2025).

Where a chain is given by its changes, count along the chain named. Where no end group is shown, it is not given here. The star is where a group is joined. Biotin = O=C1N[C@H]2[C@H](CS[C@H]2CCCCC(=O)*)N1; Ahx = NCCCCCC(=O)O

One assay concerns the target T1, 127-140aa.
T1 peptide: {Biotin-Ahx}-MPSEEGYQDYEPEA
Put plainly: indirect ELISA on biotinylated 15-mer peptide. The method, then: (§1) Serum-free supernatants were harvested from stable hybridomas. The supernatants containing antibodies of interest were then screened by an indirect ELISA assay to determine epitopes. Epitopes were first determined using a library of 15-mer peptides covering the entire sequence of human alpha-synuclein protein, spanning amino acids (aa) 1-140 with 9aa offset and […] overlap. […] Briefly, streptavidin-coated ELISA plates were blocked overnight at 4° C. […] Plates were washed with PBS/0.05% Tween®20 and then incubated with the hybridoma supernatants at 1/100 dilution for 1 hour at 25° C.

In the next assay the target is T2, 46-60aa.
T2 construct: also called alpha-synuclein peptide 46-60
T2 peptide: {Biotin-Ahx}-EGVVHGVATVAEKTK
Put plainly: indirect ELISA on biotinylated 15-mer peptide. The method, then:
as §1

In a further assay the target is T3, 1-14aa.
T3 construct: also called alpha-synuclein peptide 1-14
T3 peptide: MDVFMKGLSKAKEG-biotin
Kind of assay: indirect ELISA on biotinylated 15-mer peptide. The method, then: as §1

Another assay deals with T4, 91-105aa.
T4 peptide: {Biotin-Ahx}-ATGFVKKDQLGKNEE
Put plainly: indirect ELISA on biotinylated 15-mer peptide. The method, then: as §1
In general terms: ELISA stands for enzyme-linked immunosorbent assay.

Another assay concerns the target T5, 10-24aa.
T5 construct: also called alpha-synuclein peptide 10-24
T5 peptide: {Biotin-Ahx}-KAKEGVVAAAEKTKQ
Put plainly: indirect ELISA on biotinylated 15-mer peptide. The method, then: as §1

Another assay addresses T6, 1-15aa.
T6 construct: also called alpha-synuclein peptide 1-15
T6 peptide: {Biotin-Ahx}-MDVFMKGLSKAKEGV
Put plainly: indirect ELISA on biotinylated 15-mer peptide. The procedure: as §1

Assay [1] deals with T7, 82-96aa.
T7 construct: also called alpha-synuclein peptide 82-96
T7 peptide: {Biotin-Ahx}-VEGAGSIAAATGFVK
Kind of assay: indirect ELISA on biotinylated 15-mer peptide. The method, then:
as §1

Assay [2] deals with T8, 118-132aa.
T8 peptide: {Biotin-Ahx}-VDPDNEAYEMPSEEG
Put plainly: indirect ELISA on biotinylated 15-mer peptide, supernatant 1/100. The procedure: as §1

For assay [3], the target named is T9, alpha-synuclein seeds (UniProt P37840 1-140). Kind of assay: cell-based or functional assay.
Assay [4] has as its target T8, 118-132aa. Put plainly: indirect ELISA on biotinylated 15-mer peptide. The procedure: as §1
Assay [5] concerns the target T7, 82-96aa. Kind of assay: indirect ELISA on biotinylated 15-mer peptide, supernatant 1/100. The method, then:
as §1

The target of assay [6] is T10, 64-78aa.
T10 construct: also called alpha-synuclein peptide 64-78
T10 peptide: {Biotin-Ahx}-TNVGGAVVTGVTAVA
Put plainly: indirect ELISA on biotinylated 15-mer peptide. The procedure: as §1

Assay [7] concerns the target T10, 64-78aa. Kind of assay: indirect ELISA on biotinylated 15-mer peptide, supernatant 1/100. The method, then:
as §1

Assay [8] has as its target T9, alpha-synuclein seeds. Put plainly: cell-based or functional assay. The source holds these as a separate data set.
The target of assay [9] is T11, monomeric alpha-synuclein (UniProt P37840 1-140). Kind of assay: SPR, captured bAb. In general terms: SPR reads the build-up and loss of mass on a sensor chip optically.
The target in assay [10] is T12, alpha-synuclein fibrils (UniProt P37840 1-140). Put plainly: SPR, captured bAb.
Assay [11] deals with T11, monomeric alpha-synuclein. Kind of assay: SPR, captured bAb; head says nM, kd/ka gives M.
In assay [12] the target is T12, alpha-synuclein fibrils. Put plainly: SPR, captured bAb; head says nM, kd/ka gives M.
Assay [13] addresses T12, alpha-synuclein fibrils. Put plainly: SPR, captured bAb. The procedure:
Binding affinity of alpha-synuclein biparatopic antibodies to monomeric or fibrillar alpha-synuclein species was performed using a single-cycle kinetics method. The instrument was primed with 1×HBS-P+ buffer (10× stock from GE Healthcare, BR-1003-52 diluted in Milli-Q water). Injections of monomeric alpha-synuclein (Boston Biochem, SP-485), increasing in concentration from 0.62-50 nM prepared from serial 2-fold dilutions, were performed with contact times of 300 sec/injection at a flow rate of 30 μL/min. A dissociation phase of 900 sec followed the final 50 nM injection. Regeneration of the sensor to the goat anti-human antibody layer was achieved using 3 regenerations of 10 mM Glycine pH 1.7. […] Regeneration of the sensor to the goat anti-mouse antibody layer was achieved using 3 regenerations of 10 mM Glycine pH 1.7. Results obtained from single-cycle kinetics were evaluated by Biacore 8K evaluation software with 1:1 binding homogenous Langmuir model with a preceeding buffer injection as a blank subtraction. The following kinetic parameters were obtained: on-rate (ka), off-rate (kd), affinity constant (KD, ratio of kd by ka), maximum response (Rmax), and goodness of fit (Chi2).
This is another data set of the same source.

B1: ACI-7079-2501G2-Ab2 (antibody, V domains shown)
VH: EVQLVESGGGLVQPKGSLKLSCAASGFNFNTYAMNWVRQAPGKGLEWVARIRTKSNNFATYYAHSVKDRFTISRDDSESMLYLQMNNLKTEDTAMYYCVRQGLAYYAMDYWGQGTSVTVSS
VL: DVLMTQTPLSLPVSLGDQVSISCRSSQTIVHSNGNTYLEWYLQKPGQSPKLLIYKVSNRFSGVPDRFSGSGSGTDFTLKISRVEAEDLGVYYCFQGSQGPLTFGAGTKLELK
notes: mouse hybridoma mAb; VH/VL only; also called 2501G2E5
Turning to B1, the binding result in the assay with 127-140aa, with 46-60aa, in the assay with 1-14aa, with 91-105aa, with 10-24aa and in the assay with 1-15aa was “no binding (tested: supernatant 1/100)” throughout. The binding result is “no binding (tested: supernatant 1/100)” with 82-96aa [1] and “binds” in the assay with 118-132aa [2].

B2: ACI-7079-2503C6-Ab1 (antibody, V domains shown)
VH: DVQLQESGPGLVKPSQSLSLTCSVTGYSITSGYYWNWIRLFPGNKLEWLGYINYDGSNNFNPSLKNRISITRDTSKNQFFLKLNSVTSEDTATYFCLRGDWDWGQGTLVTVSA
VL: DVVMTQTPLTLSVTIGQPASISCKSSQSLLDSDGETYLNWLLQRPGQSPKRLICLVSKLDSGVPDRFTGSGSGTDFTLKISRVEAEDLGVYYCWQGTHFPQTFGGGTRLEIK
notes: mouse hybridoma mAb; VH/VL only; also called 2503C6H9
Consider B2, for which the “aggregation half-time (τ1/2) of seeded alpha-synuclein aggregation, ThT; no antibody 26.9 hours” value with alpha-synuclein seeds [3] worked out at 22.5 h. For the same molecule, the binding result in the assay with 127-140aa, in the assay with 46-60aa, with 118-132aa [4], with 1-14aa, in the assay with 91-105aa and with 10-24aa was “no binding (tested: supernatant 1/100)” each time. Moreover, the binding result is “no binding (tested: supernatant 1/100)” in the assay with 1-15aa and “binds” with 82-96aa [5].

B3: ACI-7079-2511B3-Ab3 (antibody, V domains shown)
VH: B2 VH with Y27F, G32Y, L40Q, L49M, G50A, N53S, F60Y, S88T, F95Y, L97T
VL: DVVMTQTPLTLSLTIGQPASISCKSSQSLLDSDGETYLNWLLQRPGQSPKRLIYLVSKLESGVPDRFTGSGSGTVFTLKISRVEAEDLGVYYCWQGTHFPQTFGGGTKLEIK
notes: mouse hybridoma mAb; VH/VL only; also called 2511B3B12
B3: the binding result with 127-140aa, in the assay with 46-60aa, with 118-132aa [4], in the assay with 1-14aa, with 91-105aa and with 10-24aa was “no binding (tested: supernatant 1/100)” in each case. Moreover, the results for the binding result with 1-15aa and with 82-96aa [5] were “no binding (tested: supernatant 1/100)” and “binds”, respectively.

B4: ACI-7067-1116F2-Ab1 (antibody, V domains shown)
VH: DVQLQESGPGFVKPSQSLSLTCSVTGYSITRGFYWNWIRQFPGNKLEWMGYISDDGNSNYNPSLKNRISITRDTFKNQVFLRLNSVTTEDTATYYCTRGDLLWGQGTTLTVSS
VL: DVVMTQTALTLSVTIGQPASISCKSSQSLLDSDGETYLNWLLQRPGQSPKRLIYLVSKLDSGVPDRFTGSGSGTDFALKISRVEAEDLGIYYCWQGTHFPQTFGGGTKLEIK
notes: mouse hybridoma mAb; VH/VL only; also called 1116F2A2
On to B4, for which the binding result with 127-140aa is on record as “no binding (tested: supernatant 1/100)”; with 46-60aa, “no binding (tested: supernatant 1/100)”; with 118-132aa [4], “no binding (tested: supernatant 1/100)”; with 64-78aa [6], “no binding (tested: supernatant 1/100)”; in the assay with 82-96aa [5] it was “binds”.

B5: ACI-7067-1102G3-Ab1 (antibody, V domains shown)
VH: EVKLEESGGGLVQPGGSMKLSCAASGFTFSDAWMNWVRQSPEKGLEWVAEIRNKAHNHATYYAESVKGRFTISGDDSKSSVYLQMNNLRAEDTGIYYCTIYSYWGQGTLVTVSA
VL: SIVMTQTPKFLLVSAGDRVTITCKASQSVTKDVAWYQQKPGQSPKLLIYSTSNRYSGVPDRFTGSGYGTDFTFTINTVQTEDLAVYFCQQDYRIPYTFGGGTKLEIK
notes: mouse hybridoma mAb; VH/VL only; also called 1102G3F2
As to B5, the binding result with 127-140aa is “no binding (tested: supernatant 1/100)”; with 46-60aa, “no binding (tested: supernatant 1/100)”; with 118-132aa [4], “no binding (tested: supernatant 1/100)”; in the assay with 82-96aa [1], “no binding (tested: supernatant 1/100)”; with 64-78aa [7] it was “binds”.

B6: ACI-7067-1112H8-Ab2 (antibody, V domains shown)
VH: B5 VH with S30T, V48I, H58Y, T71D, A90V, Q106P
VL: SIVMTQTPKFLLMSPGDRVTMTCTASQSVSNYVAWYQQKPGQSPKLLIYSASNRFTGVPDRFTGSGYGTDFTFTINTVQTEDMAVYFCQQDYTSPYTFGGGTKLEIK
notes: mouse hybridoma mAb; VH/VL only; also called 1112H8C12
Take B6: the binding result is “no binding (tested: supernatant 1/100)” with 127-140aa; “no binding (tested: supernatant 1/100)” with 46-60aa; “no binding (tested: supernatant 1/100)” with 118-132aa [4]; “no binding (tested: supernatant 1/100)” in the assay with 82-96aa [1]; “binds” with 64-78aa [7].

B7: ACI-7067-1108H1-Ab1 (antibody, V domains shown)
VH: B5 VH with E5V, A23T, Y61N, Y103F
VL: B5 VL with K31N, D32Y, Q37H, T51A
notes: mouse hybridoma mAb; VH/VL only; also called 1108H1E1
On to B7, for which the “aggregation half-time (τ1/2) of seeded alpha-synuclein aggregation, ThT; no antibody 26.9 hours” value with alpha-synuclein seeds [3] is 28 h. Moreover, the binding result in the assay with 127-140aa is on record as “no binding (tested: supernatant 1/100)”; in the assay with 46-60aa, “no binding (tested: supernatant 1/100)”; with 118-132aa [4] it was “no binding (tested: supernatant 1/100)”; with 82-96aa [1], “no binding (tested: supernatant 1/100)”; in the assay with 64-78aa [7], “binds”.

B8: ACI-5A12_3108C10 (bispecific antibody, V domains shown)
VH 1: QVHLKQSGADLVRPGASVKLSCKASGYTFTDYYINWVKQRPGQGLEWIARIYPGSGNTYYNEKFKGRATLSAEKSSTTAYMQLSSLTSEDSAVYFCVVGYYGAWGQGTTLTVSS
VL 1: DVVMTQTPLSLPVSLGDQASISCRSSQSLVHSNGKTHLHWYLQKPGQSPKLLIYKVSNRFSGVPDRFSGSGSGTDFTLKISRVEAEDLGVYFCSQSTHVPWTFGGGTKLEIK
VH 2: ELQLVESGGGLVRPGGSLKLSCATSGFTFRNYAMSWVRQTPAKRLEWVATISDGGTYTFYSDNVKGRFTISRDNVKNTLYLQMSHLKSEDTAMYYCSRAGSGHWGQGTTLTVSS
VL 2: not shown
notes: biparatopic; Arm A ACI-8033-5A12-Ab1, Arm B ACI-7079-3108C10-Ab2; engineered constant domains not specified
For the molecule B8, the “IC50, percentage of de novo alpha-synuclein aggregates formed in cells after immunodepletion of seeds” value in the assay with alpha-synuclein seeds [8] came to 22.7 nM. Further, the koff in assay [9] was > 1 s⁻¹; with alpha-synuclein fibrils [10], 9.19e-05 s⁻¹. Also, the kon in [9] was > 2.9e+07 M⁻¹ s⁻¹; with alpha-synuclein fibrils [10], 11200 M⁻¹ s⁻¹. Moreover, the values for the Kd (in assay [11]; in the assay with alpha-synuclein fibrils [12]) were 34.5 nM and 8.21 nM, respectively. The “fold slower dissociation rate (Kd) from fibrillar than from monomeric alpha-synuclein” value in the assay with alpha-synuclein fibrils [13] was ≥ 100 fold.

The koff is the first-order rate constant of dissociation. A low value points to a long-lived complex. A word on the kon: it is the rate constant with which the complex forms. High values mean fast association, low ones slow association. What is called Kd is the concentration at which binding is half-saturated. The low end stands for tighter binding, the high end for weaker binding.
